This note sets out measurements from article PMC3105425 (Nucleic Acids Research, 2011).

This experiment addresses ribosomal protein L2 (E. coli, UniProt P60422 1-273). Briefly: ELISA.

B1: DnaAΔ220-294 lacking residues 220–294 (natural protein)
chain: MSLSLWQQCLARLQDELPATEFSMWIRPLQAELSDNTLALYAPNRFVLDWVRDKYLNNINGLLTSFCGADAPQLRFEVGTKPVTQTPQAAVTSNVAAPAQVAQTQPQRAAPSTRSGWDNVPAPAEPTYRSNVNVKHTFDNFVEGKSNQLARAAARQVADNPGGAYNPLFLYGGTGLGKTHLLHAVGNGIMARKPNAKVVYMHSERFVQDMVKALQNNAIEPPELETRVAILMKKADENDIRLPGEVAFFIAKRLRSNVRELEGALNRVIANANFTGRAITIDFVREALRDLLALQEKLVTIDNIQKTVAEYYKIKVADLLSKRRSRSVARPRQMAMALAKELTNHSLPEIGDAFGGRDHTTVLHACRKIEQLREESHDIKEDFSNLIRTLSS
For the molecule B1, the binding result is “binds”.

B2: DnaA protein (natural protein)
chain: MSLSLWQQCLARLQDELPATEFSMWIRPLQAELSDNTLALYAPNRFVLDWVRDKYLNNINGLLTSFCGADAPQLRFEVGTKPVTQTPQAAVTSNVAAPAQVAQTQPQRAAPSTRSGWDNVPAPAEPTYRSNVNVKHTFDNFVEGKSNQLARAAARQVADNPGGAYNPLFLYGGTGLGKTHLLHAVGNGIMARKPNAKVVYMHSERFVQDMVKALQNNAIEEFKRYYRSVDALLIDDIQFFANKERSQEEFFHTFNALLEGNQQIILTSDRYPKEINGVEDRLKSRFGWGLTVAIEPPELETRVAILMKKADENDIRLPGEVAFFIAKRLRSNVRELEGALNRVIANANFTGRAITIDFVREALRDLLALQEKLVTIDNIQKTVAEYYKIKVADLLSKRRSRSVARPRQMAMALAKELTNHSLPEIGDAFGGRDHTTVLHACRKIEQLREESHDIKEDFSNLIRTLSS
Consider B2, for which the binding result is “binds”.

B3: DnaAΔ129 lacking the N-terminal 129 residues (domain or fragment)
chain: SNVNVKHTFDNFVEGKSNQLARAAARQVADNPGGAYNPLFLYGGTGLGKTHLLHAVGNGIMARKPNAKVVYMHSERFVQDMVKALQNNAIEEFKRYYRSVDALLIDDIQFFANKERSQEEFFHTFNALLEGNQQIILTSDRYPKEINGVEDRLKSRFGWGLTVAIEPPELETRVAILMKKADENDIRLPGEVAFFIAKRLRSNVRELEGALNRVIANANFTGRAITIDFVREALRDLLALQEKLVTIDNIQKTVAEYYKIKVADLLSKRRSRSVARPRQMAMALAKELTNHSLPEIGDAFGGRDHTTVLHACRKIEQLREESHDIKEDFSNLIRTLSS
For B3, the “fold reduction of the interaction against wild-type DnaA” value is ~4 fold.
